Laboratory results published in patent publication US20180022779A1 (UNIVERSITY OF VIRGINIA PATENT FOUNDATION, published 2018).

Target: T1, mouse eNOS (endogenous, thoracodorsal arteries) (mouse, UniProt P70313 2-1202)
T1 sequence (looked up): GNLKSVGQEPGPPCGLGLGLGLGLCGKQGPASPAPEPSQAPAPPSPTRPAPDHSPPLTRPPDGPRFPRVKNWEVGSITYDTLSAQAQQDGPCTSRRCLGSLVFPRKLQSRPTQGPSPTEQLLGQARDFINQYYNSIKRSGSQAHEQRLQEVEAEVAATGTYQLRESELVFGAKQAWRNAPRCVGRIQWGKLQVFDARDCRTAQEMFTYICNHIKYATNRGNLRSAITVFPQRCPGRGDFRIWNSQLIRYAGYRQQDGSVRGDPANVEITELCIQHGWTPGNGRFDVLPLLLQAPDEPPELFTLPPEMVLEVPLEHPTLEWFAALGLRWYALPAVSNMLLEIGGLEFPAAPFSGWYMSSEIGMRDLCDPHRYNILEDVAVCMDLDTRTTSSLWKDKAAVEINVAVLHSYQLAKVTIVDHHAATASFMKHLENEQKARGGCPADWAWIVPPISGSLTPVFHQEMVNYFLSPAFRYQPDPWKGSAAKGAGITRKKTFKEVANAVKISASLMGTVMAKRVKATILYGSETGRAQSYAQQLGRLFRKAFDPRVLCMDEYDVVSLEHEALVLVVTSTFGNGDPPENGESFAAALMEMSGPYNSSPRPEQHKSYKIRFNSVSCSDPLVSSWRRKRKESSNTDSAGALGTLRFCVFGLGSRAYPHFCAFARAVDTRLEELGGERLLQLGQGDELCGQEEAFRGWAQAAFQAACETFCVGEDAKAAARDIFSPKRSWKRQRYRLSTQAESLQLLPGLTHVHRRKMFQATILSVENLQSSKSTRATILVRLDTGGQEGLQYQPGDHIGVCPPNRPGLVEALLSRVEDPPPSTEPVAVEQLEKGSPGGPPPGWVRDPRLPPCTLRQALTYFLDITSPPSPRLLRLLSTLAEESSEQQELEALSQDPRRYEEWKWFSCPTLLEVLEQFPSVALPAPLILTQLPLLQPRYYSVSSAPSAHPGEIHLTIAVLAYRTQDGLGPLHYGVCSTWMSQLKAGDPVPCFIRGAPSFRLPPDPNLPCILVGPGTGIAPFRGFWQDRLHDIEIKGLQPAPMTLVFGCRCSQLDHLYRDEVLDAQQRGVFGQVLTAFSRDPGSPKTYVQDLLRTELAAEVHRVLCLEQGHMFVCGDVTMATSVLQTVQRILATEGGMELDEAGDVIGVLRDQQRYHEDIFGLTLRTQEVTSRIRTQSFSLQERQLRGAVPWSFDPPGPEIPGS
Experiment: cell-based or functional assay

B1: Hb α X peptide (HIV-tat tag linked to LSFPTTKTYF) (peptide)
peptide: YGRKKRRQRRRLSFPTTKTYF
  EC50 of phenylephrine ([PE] producing half of the maximum effect), thoracodorsal arteries treated with Hb α X: 6.8 µM
